{"source": "patent US5866538A", "about": "“Insulin preparations containing NaCl” (Novo Nordisk A/S, priority 1996, dated 1999)", "experiment": "Stability tests of Asp^B28 human insulin preparations in Penfill cartridges, varying phosphate and NaCl (Example IV)", "assay_type": "physicochemical", "settings": "19.6 μg Zn/100 U insulin, pH 7.4", "description": "375.7 mg Asp^B28 human insulin was dissolved in water by adding 1.6 ml 0.2N HCl and 49 μl zinc chloride solution (40 mg Zn/ml). 20 g of a solution containing 80 mg/g glycerol, 7.50 mg/g phenol and 8.60 mg/g m-cresol was added to the solution while mixing. Varying amounts (3.71 g to 6.71 g) of a solution containing 24.0 mg/g disodium phosphate dihydrate and 11 μl/g 2N sodium hydroxide was added while mixing, finally varying amounts (0 g to 3.65 g) of a solution containing 40 mg/g sodium chloride were added while mixing so as to obtain a sodium chloride concentration mentioned in table 6. pH was adjusted to pH 7.40±0.05 and water added up to 100 ml. The Asp^B28 Human insulin preparations were introduced into Penfill® cartridges and subjected to stability tests at 25° C. and 37° C. The stability data at the two different temperatures and three different phosphate concentrations and at 19.6 μg Zn/100 U insulin and pH=7.4 are summarized in Tables 4, 5 and 6.", "key": {"[1]": {"settings": "6 weeks at 37° C., NaCl added 0 mM, total Cl^- 3.8 mM, phosphate 5 mM"}, "[2]": {"settings": "6 weeks at 37° C., NaCl added 0 mM, total Cl^- 3.8 mM, phosphate 7 mM"}, "[3]": {"settings": "6 weeks at 37° C., NaCl added 0 mM, total Cl^- 3.8 mM, phosphate 9 mM"}, "[4]": {"settings": "6 weeks at 37° C., NaCl added 5 mM, total Cl^- 8.8 mM, phosphate 5 mM"}, "[5]": {"settings": "6 weeks at 37° C., NaCl added 5 mM, total Cl^- 8.8 mM, phosphate 7 mM"}, "[6]": {"settings": "6 weeks at 37° C., NaCl added 5 mM, total Cl^- 8.8 mM, phosphate 9 mM"}, "[7]": {"settings": "6 weeks at 37° C., NaCl added 10 mM, total Cl^- 13.8 mM, phosphate 5 mM"}, "[8]": {"settings": "6 weeks at 37° C., NaCl added 10 mM, total Cl^- 13.8 mM, phosphate 7 mM"}, "[9]": {"settings": "6 weeks at 37° C., NaCl added 10 mM, total Cl^- 13.8 mM, phosphate 9 mM"}, "[10]": {"settings": "6 weeks at 37° C., NaCl added 15 mM, total Cl^- 18.8 mM, phosphate 5 mM"}, "[11]": {"settings": "6 weeks at 37° C., NaCl added 15 mM, total Cl^- 18.8 mM, phosphate 7 mM"}, "[12]": {"settings": "6 weeks at 37° C., NaCl added 15 mM, total Cl^- 18.8 mM, phosphate 9 mM"}, "[13]": {"settings": "6 weeks at 37° C., NaCl added 20 mM, total Cl^- 23.8 mM, phosphate 5 mM"}, "[14]": {"settings": "6 weeks at 37° C., NaCl added 20 mM, total Cl^- 23.8 mM, phosphate 7 mM"}, "[15]": {"settings": "6 weeks at 37° C., NaCl added 20 mM, total Cl^- 23.8 mM, phosphate 9 mM"}, "[16]": {"settings": "6 weeks at 37° C., NaCl added 25 mM, total Cl^- 28.8 mM, phosphate 5 mM"}, "[17]": {"settings": "6 weeks at 37° C., NaCl added 25 mM, total Cl^- 28.8 mM, phosphate 7 mM"}, "[18]": {"settings": "6 weeks at 37° C., NaCl added 25 mM, total Cl^- 28.8 mM, phosphate 9 mM"}, "[19]": {"settings": "12 weeks at 25° C., NaCl added 0 mM, total Cl^- 3.8 mM, phosphate 5 mM"}, "[20]": {"settings": "12 weeks at 25° C., NaCl added 0 mM, total Cl^- 3.8 mM, phosphate 7 mM"}, "[21]": {"settings": "12 weeks at 25° C., NaCl added 5 mM, total Cl^- 8.8 mM, phosphate 5 mM"}, "[22]": {"settings": "12 weeks at 25° C., NaCl added 5 mM, total Cl^- 8.8 mM, phosphate 7 mM"}, "[23]": {"settings": "12 weeks at 25° C., NaCl added 5 mM, total Cl^- 8.8 mM, phosphate 9 mM"}, "[24]": {"settings": "12 weeks at 25° C., NaCl added 10 mM, total Cl^- 13.8 mM, phosphate 5 mM"}, "[25]": {"settings": "12 weeks at 25° C., NaCl added 10 mM, total Cl^- 13.8 mM, phosphate 7 mM"}, "[26]": {"settings": "12 weeks at 25° C., NaCl added 10 mM, total Cl^- 13.8 mM, phosphate 9 mM"}, "[27]": {"settings": "12 weeks at 25° C., NaCl added 15 mM, total Cl^- 18.8 mM, phosphate 5 mM"}, "[28]": {"settings": "12 weeks at 25° C., NaCl added 15 mM, total Cl^- 18.8 mM, phosphate 7 mM"}, "[29]": {"settings": "12 weeks at 25° C., NaCl added 15 mM, total Cl^- 18.8 mM, phosphate 9 mM"}, "[30]": {"settings": "12 weeks at 25° C., NaCl added 20 mM, total Cl^- 23.8 mM, phosphate 5 mM"}, "[31]": {"settings": "12 weeks at 25° C., NaCl added 20 mM, total Cl^- 23.8 mM, phosphate 7 mM"}, "[32]": {"settings": "12 weeks at 25° C., NaCl added 20 mM, total Cl^- 23.8 mM, phosphate 9 mM"}, "[33]": {"settings": "12 weeks at 25° C., NaCl added 25 mM, total Cl^- 28.8 mM, phosphate 5 mM"}, "[34]": {"settings": "12 weeks at 25° C., NaCl added 25 mM, total Cl^- 28.8 mM, phosphate 7 mM"}, "[35]": {"settings": "12 weeks at 25° C., NaCl added 25 mM, total Cl^- 28.8 mM, phosphate 9 mM"}}}
{"substance": "Asp^B28 human insulin", "values": [{"measurement": "Asp^B28 Des-amido insulins formed", "setting": "[1]", "value": 4.7, "unit": "%"}, {"measurement": "Di- & polymers formed", "setting": "[1]", "value": 1.4, "unit": "%"}, {"measurement": "Asp^B28 Des-amido insulins formed", "setting": "[2]", "value": 4.3, "unit": "%"}, {"measurement": "Di- & polymers formed", "setting": "[2]", "value": 1.2, "unit": "%"}, {"measurement": "Asp^B28 Des-amido insulins formed", "setting": "[3]", "value": 4.9, "unit": "%"}, {"measurement": "Di- & polymers formed", "setting": "[3]", "value": 1.2, "unit": "%"}, {"measurement": "Asp^B28 Des-amido insulins formed", "setting": "[4]", "value": 3.7, "unit": "%"}, {"measurement": "Di- & polymers formed", "setting": "[4]", "value": 1.3, "unit": "%"}, {"measurement": "Asp^B28 Des-amido insulins formed", "setting": "[5]", "value": 3.6, "unit": "%"}, {"measurement": "Di- & polymers formed", "setting": "[5]", "value": 1.2, "unit": "%"}, {"measurement": "Asp^B28 Des-amido insulins formed", "setting": "[6]", "value": 4.0, "unit": "%"}, {"measurement": "Di- & polymers formed", "setting": "[6]", "value": 1.1, "unit": "%"}, {"measurement": "Asp^B28 Des-amido insulins formed", "setting": "[7]", "value": 3.4, "unit": "%"}, {"measurement": "Di- & polymers formed", "setting": "[7]", "value": 1.2, "unit": "%"}, {"measurement": "Asp^B28 Des-amido insulins formed", "setting": "[8]", "value": 3.1, "unit": "%"}, {"measurement": "Di- & polymers formed", "setting": "[8]", "value": 1.1, "unit": "%"}, {"measurement": "Asp^B28 Des-amido insulins formed", "setting": "[9]", "value": 3.7, "unit": "%"}, {"measurement": "Di- & polymers formed", "setting": "[9]", "value": 1.0, "unit": "%"}, {"measurement": "Asp^B28 Des-amido insulins formed", "setting": "[10]", "value": 3.1, "unit": "%"}, {"measurement": "Di- & polymers formed", "setting": "[10]", "value": 1.1, "unit": "%"}, {"measurement": "Asp^B28 Des-amido insulins formed", "setting": "[11]", "value": 3.1, "unit": "%"}, {"measurement": "Di- & polymers formed", "setting": "[11]", "value": 1.0, "unit": "%"}, {"measurement": "Asp^B28 Des-amido insulins formed", "setting": "[12]", "value": 3.5, "unit": "%"}, {"measurement": "Di- & polymers formed", "setting": "[12]", "value": 1.0, "unit": "%"}, {"measurement": "Asp^B28 Des-amido insulins formed", "setting": "[13]", "value": 2.7, "unit": "%"}, {"measurement": "Di- & polymers formed", "setting": "[13]", "value": 1.1, "unit": "%"}, {"measurement": "Asp^B28 Des-amido insulins formed", "setting": "[14]", "value": 2.9, "unit": "%"}, {"measurement": "Di- & polymers formed", "setting": "[14]", "value": 1.0, "unit": "%"}, {"measurement": "Asp^B28 Des-amido insulins formed", "setting": "[15]", "value": 3.5, "unit": "%"}, {"measurement": "Di- & polymers formed", "setting": "[15]", "value": 1.0, "unit": "%"}, {"measurement": "Asp^B28 Des-amido insulins formed", "setting": "[16]", "value": 3.0, "unit": "%"}, {"measurement": "Di- & polymers formed", "setting": "[16]", "value": 0.9, "unit": "%"}, {"measurement": "Asp^B28 Des-amido insulins formed", "setting": "[17]", "value": 2.8, "unit": "%"}, {"measurement": "Di- & polymers formed", "setting": "[17]", "value": 1.1, "unit": "%"}, {"measurement": "Asp^B28 Des-amido insulins formed", "setting": "[18]", "value": 3.1, "unit": "%"}, {"measurement": "Di- & polymers formed", "setting": "[18]", "value": 0.9, "unit": "%"}, {"measurement": "Asp^B28 Des-amido insulins formed", "setting": "[19]", "value": 2.2, "unit": "%"}, {"measurement": "Di- & polymers formed", "setting": "[19]", "value": 0.5, "unit": "%"}, {"measurement": "Asp^B28 Des-amido insulins formed", "setting": "[20]", "value": 2.0, "unit": "%"}, {"measurement": "Di- & polymers formed", "setting": "[20]", "value": 0.5, "unit": "%"}, {"measurement": "Di- & polymers formed", "setting": "12 weeks at 25° C., NaCl added 0 mM, total Cl^- 3.8 mM, phosphate 9 mM", "value": 0.4, "unit": "%"}, {"measurement": "Asp^B28 Des-amido insulins formed", "setting": "[21]", "value": 1.7, "unit": "%"}, {"measurement": "Di- & polymers formed", "setting": "[21]", "value": 0.4, "unit": "%"}, {"measurement": "Asp^B28 Des-amido insulins formed", "setting": "[22]", "value": 1.7, "unit": "%"}, {"measurement": "Di- & polymers formed", "setting": "[22]", "value": 0.4, "unit": "%"}, {"measurement": "Asp^B28 Des-amido insulins formed", "setting": "[23]", "value": 1.8, "unit": "%"}, {"measurement": "Di- & polymers formed", "setting": "[23]", "value": 0.4, "unit": "%"}, {"measurement": "Asp^B28 Des-amido insulins formed", "setting": "[24]", "value": 1.5, "unit": "%"}, {"measurement": "Di- & polymers formed", "setting": "[24]", "value": 0.4, "unit": "%"}, {"measurement": "Asp^B28 Des-amido insulins formed", "setting": "[25]", "value": 1.4, "unit": "%"}, {"measurement": "Di- & polymers formed", "setting": "[25]", "value": 0.4, "unit": "%"}, {"measurement": "Asp^B28 Des-amido insulins formed", "setting": "[26]", "value": 1.5, "unit": "%"}, {"measurement": "Di- & polymers formed", "setting": "[26]", "value": 0.4, "unit": "%"}, {"measurement": "Asp^B28 Des-amido insulins formed", "setting": "[27]", "value": 1.4, "unit": "%"}, {"measurement": "Di- & polymers formed", "setting": "[27]", "value": 0.4, "unit": "%"}, {"measurement": "Asp^B28 Des-amido insulins formed", "setting": "[28]", "value": 1.5, "unit": "%"}, {"measurement": "Di- & polymers formed", "setting": "[28]", "value": 0.4, "unit": "%"}, {"measurement": "Asp^B28 Des-amido insulins formed", "setting": "[29]", "value": 1.5, "unit": "%"}, {"measurement": "Di- & polymers formed", "setting": "[29]", "value": 0.4, "unit": "%"}, {"measurement": "Asp^B28 Des-amido insulins formed", "setting": "[30]", "value": 1.3, "unit": "%"}, {"measurement": "Di- & polymers formed", "setting": "[30]", "value": 0.4, "unit": "%"}, {"measurement": "Asp^B28 Des-amido insulins formed", "setting": "[31]", "value": 1.4, "unit": "%"}, {"measurement": "Di- & polymers formed", "setting": "[31]", "value": 0.4, "unit": "%"}, {"measurement": "Asp^B28 Des-amido insulins formed", "setting": "[32]", "value": 1.6, "unit": "%"}, {"measurement": "Di- & polymers formed", "setting": "[32]", "value": 0.4, "unit": "%"}, {"measurement": "Asp^B28 Des-amido insulins formed", "setting": "[33]", "value": 1.3, "unit": "%"}, {"measurement": "Di- & polymers formed", "setting": "[33]", "value": 0.4, "unit": "%"}, {"measurement": "Asp^B28 Des-amido insulins formed", "setting": "[34]", "value": 1.3, "unit": "%"}, {"measurement": "Di- & polymers formed", "setting": "[34]", "value": 0.4, "unit": "%"}, {"measurement": "Asp^B28 Des-amido insulins formed", "setting": "[35]", "value": 1.4, "unit": "%"}, {"measurement": "Di- & polymers formed", "setting": "[35]", "value": 0.4, "unit": "%"}]}
